Experimental data taken from patent publication US20100015654A1 (INSTITUT DE RECHERCHES CLINIQUES DE MONTREAL I R C M, published 2010).

Key:
mouse CRACC = molecular target: T1, mouse CRACC (mouse, UniProt Q8BHK6 23-333); assay: co-immunoprecipitation from IL-2-activated mouse NK cells, anti-CRACC immunoblot
T1 construct: whole, on cells; Endogenous protein in NK cell lysates
T1 sequence (looked up): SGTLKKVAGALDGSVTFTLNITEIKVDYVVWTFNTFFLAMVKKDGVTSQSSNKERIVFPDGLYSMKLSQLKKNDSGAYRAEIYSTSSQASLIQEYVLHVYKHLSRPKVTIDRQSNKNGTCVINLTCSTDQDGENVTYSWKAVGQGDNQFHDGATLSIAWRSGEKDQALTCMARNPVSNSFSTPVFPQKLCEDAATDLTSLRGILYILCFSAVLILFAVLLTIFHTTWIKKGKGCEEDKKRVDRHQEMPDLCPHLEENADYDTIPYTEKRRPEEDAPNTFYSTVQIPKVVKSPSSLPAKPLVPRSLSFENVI
Text: (§1) Association of phosphotyrosine-containing proteins with SAP-related adaptors in mouse NK cells. The indicated SAP-related adaptors were immunoprecipitated from IL-2-activated mouse NK cells, resolved in 8% gels and probed by immunoblotting with anti-phosphotyrosine (P.tyr). The anti-EAT-2 MAbs used for immunoprecipitation react with both EAT-2 and ERT. Anti-CD4 MAb GK1.5 was used as control antibody. IgH: heavy chain of IgG. Efficient immunoprecipitation of the SAP-related adaptors was verified by probing parallel immunoprecipitates with anti-EAT-2/ERT and anti-SAP (data not shown). b. Association of 2B4 with SAP-related adaptors in NK cells. Immunoprecipitates of SAP family adaptors were reprobed by immunoblotting with anti-2B4 (top panels), anti-CRACC (middle panels) and anti-CD84 (bottom panels). The migration of the various SLAM-related receptors was verified by immunoblotting of total cell lysates with the specified antibodies (lane 5).
(§2) Mouse NK cells express three SLAM-related receptors, 2B4, CRACC and CD84, that have apparent molecular masses between 60 and 70 kDa (our unpublished results). To determine if the 70 kDa-tyrosine phosphorylated protein associated with SAP family adaptors was any of these SLAM-related receptors, immunoprecipitates of SAP-related adaptors were probed by immunoblotting with antibodies against each of these SLAM family members (FIG. 5b). […]

mouse CD84 = molecular target: T2, mouse CD84 (mouse, UniProt Q18PI6 22-329); assay: co-immunoprecipitation from IL-2-activated mouse NK cells, anti-CD84 immunoblot
T2 construct: whole, on cells; Endogenous protein in NK cell lysates
T2 sequence (looked up): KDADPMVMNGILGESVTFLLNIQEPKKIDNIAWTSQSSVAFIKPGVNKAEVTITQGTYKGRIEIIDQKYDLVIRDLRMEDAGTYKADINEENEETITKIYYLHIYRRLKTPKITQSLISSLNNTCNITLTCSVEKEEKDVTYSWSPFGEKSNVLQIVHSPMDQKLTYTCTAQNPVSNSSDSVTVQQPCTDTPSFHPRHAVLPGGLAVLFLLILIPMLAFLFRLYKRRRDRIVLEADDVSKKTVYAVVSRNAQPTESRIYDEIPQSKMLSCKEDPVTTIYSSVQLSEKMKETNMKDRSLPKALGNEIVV
Text: as §1, §2

mouse CD16 = molecular target: T3, mouse CD16 (mouse, UniProt P08508 31-261); assay: co-immunoprecipitation from IL-2-activated mouse NK cells (data not shown)
T3 construct: whole, on cells; Endogenous protein in NK cell lysates
T3 sequence (looked up): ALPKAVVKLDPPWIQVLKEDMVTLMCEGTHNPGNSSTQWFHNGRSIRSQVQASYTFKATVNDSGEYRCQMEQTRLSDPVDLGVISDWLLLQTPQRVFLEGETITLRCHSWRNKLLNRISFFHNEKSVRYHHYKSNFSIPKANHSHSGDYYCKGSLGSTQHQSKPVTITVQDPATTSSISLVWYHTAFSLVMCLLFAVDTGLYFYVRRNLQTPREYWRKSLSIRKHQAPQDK

Measured: binding result

B1: mouse SAP (other, UniProt O88890 1-126, looked up)
chain: MDAVTVYHGKISRETGEKLLLATGLDGSYLLRDSESVPGVYCLCVLYQGYIYTYRVSQTETGSWSAETAPGVHKRFFRKVKNLISAFQKPDQGIVTPLQYPVEKSSGRGPQAPTGRRDSDICLNAP
notes: Intracellular adaptor made of an SH2 domain and a short tail
no binding: mouse CRACC | mouse CD84 | mouse CD16
